For the test, the target named is MBP-VPRBP (UniProt Q9Y4B6 1-1507). Kind of test: pull-down.

The source of these data is PMC2754075 (Nature cell biology, 2009).

Sequence of MBP-VPRBP (Q9Y4B6 whole entry): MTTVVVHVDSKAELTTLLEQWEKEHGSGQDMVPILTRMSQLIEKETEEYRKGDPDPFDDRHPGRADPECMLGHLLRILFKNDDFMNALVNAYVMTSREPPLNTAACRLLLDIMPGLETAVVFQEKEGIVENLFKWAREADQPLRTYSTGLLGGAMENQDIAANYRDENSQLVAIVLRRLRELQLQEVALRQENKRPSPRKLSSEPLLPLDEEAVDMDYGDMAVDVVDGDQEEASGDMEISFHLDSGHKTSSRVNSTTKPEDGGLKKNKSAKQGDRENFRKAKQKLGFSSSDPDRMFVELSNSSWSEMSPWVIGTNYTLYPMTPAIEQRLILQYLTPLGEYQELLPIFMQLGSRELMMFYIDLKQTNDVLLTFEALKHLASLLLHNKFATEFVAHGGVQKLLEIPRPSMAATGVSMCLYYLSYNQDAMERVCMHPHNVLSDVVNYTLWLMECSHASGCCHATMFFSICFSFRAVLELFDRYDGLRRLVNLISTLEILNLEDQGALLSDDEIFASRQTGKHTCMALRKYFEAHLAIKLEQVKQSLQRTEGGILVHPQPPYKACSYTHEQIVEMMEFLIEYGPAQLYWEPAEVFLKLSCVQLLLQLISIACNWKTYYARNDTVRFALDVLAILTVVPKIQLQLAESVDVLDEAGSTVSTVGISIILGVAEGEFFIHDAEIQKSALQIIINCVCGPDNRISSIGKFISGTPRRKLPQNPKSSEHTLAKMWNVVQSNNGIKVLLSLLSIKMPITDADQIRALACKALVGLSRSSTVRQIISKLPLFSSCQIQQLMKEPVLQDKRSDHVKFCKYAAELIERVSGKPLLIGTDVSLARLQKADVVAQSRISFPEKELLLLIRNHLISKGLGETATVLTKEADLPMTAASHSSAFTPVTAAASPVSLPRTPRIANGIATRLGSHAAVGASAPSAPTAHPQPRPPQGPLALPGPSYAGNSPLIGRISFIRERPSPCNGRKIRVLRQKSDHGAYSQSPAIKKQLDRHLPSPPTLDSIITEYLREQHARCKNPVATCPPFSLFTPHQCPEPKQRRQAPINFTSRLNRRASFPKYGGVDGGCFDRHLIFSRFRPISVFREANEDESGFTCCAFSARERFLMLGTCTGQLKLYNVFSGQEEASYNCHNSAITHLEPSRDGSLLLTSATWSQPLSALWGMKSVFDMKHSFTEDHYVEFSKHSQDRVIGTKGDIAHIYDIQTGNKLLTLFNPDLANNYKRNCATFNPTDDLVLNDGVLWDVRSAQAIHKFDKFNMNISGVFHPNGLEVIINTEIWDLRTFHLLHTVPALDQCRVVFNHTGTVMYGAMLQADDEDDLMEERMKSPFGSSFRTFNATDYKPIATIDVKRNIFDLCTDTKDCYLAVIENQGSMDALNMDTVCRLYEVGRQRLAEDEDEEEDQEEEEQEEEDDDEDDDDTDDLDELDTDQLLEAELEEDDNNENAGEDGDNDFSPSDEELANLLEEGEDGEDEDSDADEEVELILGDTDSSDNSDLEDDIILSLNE

B1: GST-Katanin (natural protein)
chain: MSLLMISENVKLAREYALLGNYDSAMVYYQGVLDQMNKYLYSVKDTYLQQKWQQVWQEINVEAKHVKDIMKTLESFKLDSTPLKAAQHDLPASEGEVWSMPVPVERRPSPGPRKRQSSQYSDPKSHGNRPSTTVRVHRSSAQNVHNDRGKAVRCREKKEQNKGREEKNKSPAAVTEPETNKFDSTGYDKDLVEALERDIISQNPNVRWDDIADLVEAKKLLKEAVVLPMWMPEFFKGIRRPWKGVLMVGPPGTGKTLLAKAVATECKTTFFNVSSSTLTSKYRGESEKLVRLLFEMARFYSPATIFIDEIDSICSRRGTSEEHEASRRVKAELLVQMDGVGGTSENDDPSKMVMVLAATNFPWDIDEALRRRLEKRIYIPLPSAKGREELLRISLRELELADDVDLASIAENMEGYSGADITNVCRDASLMAMRRRIEGLTPEEIRNLSKEEMHMPTTMEDFEMALKKVSKSVSAADIERYEKWIFEFGSC
With B1, the binding result is “binds”.
